{
  "source": "patent US20140010756A1",
  "about": "(KAGOSHIMA UNIVERSITY, published 2014)",
  "binders": {"B1": {"name": "anti-human FRβ mouse monoclonal antibody 36b (antibody, mouse IgG2a, V domains shown)", "VH": "QVQLQQSGAELMKPGASLKISCKATGYTFSSYWIEWVKQRPGHGLQWIGEILPGSGSSNYNEKFKGKATFTADTSSNTAYMQLSSLTSEDSAVYYCARRGSSGSYFAMDYWGQGTSVTVSS", "VL": "DIQMTQSSSSFSVSLGDRVTITCKASEDIYNRLAWYQQKPGNAPRLLISGATSLETGVPLRFSGSGSGKDYTLSITSLQTEDIATYYCQQYWSTPWTFGGGTKLEIKK", "notes": "also called Clone 36b"}},
  "target": "T1, human folate receptor β (FRβ) (human, UniProt P14207 23-230)",
  "T1 construct": "Expressed on mouse B300-19 cells from cDNA cloned from human rheumatoid synovial membrane; also called human FRβ",
  "T1 sequence (P14207 23-230 S117T limits assumed)": "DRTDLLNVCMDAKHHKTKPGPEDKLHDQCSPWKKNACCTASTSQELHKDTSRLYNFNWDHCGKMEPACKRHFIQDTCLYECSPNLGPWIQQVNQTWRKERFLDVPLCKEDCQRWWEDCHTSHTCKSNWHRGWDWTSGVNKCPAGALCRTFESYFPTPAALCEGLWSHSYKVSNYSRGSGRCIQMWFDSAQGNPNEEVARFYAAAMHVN",
  "test": "hybridoma antibodies selected by reactivity with FRβ-expressing cells (human FRβ on mouse B300-19 cells); reactivity analysed by flow cytometry",
  "data": [
    {"binder": "B1", "values": [
      {"measurement": "binding result", "value": "binds"}
    ]}
  ]
}
